For this experiment, the target named is HA-K^b (H-2K^b heavy chain with an N-terminal HA tag, no GFP) (mus musculus). The experiment is described as follows: two-hybrid antibody micropattern assay (co-capture on live cells, confocal fluorescence microscopy); HA-tagged bait captured on printed anti-HA (12CA5) micropatterns on glass; GFP-tagged prey read out; co-transduced STF1 cells, 25°C overnight, then shifted to 37°C for 3-4 hr to dissociate …; no peptide.
HA-K^b (H-2K^b heavy chain with an N-terminal HA tag, no GFP) (mus musculus), sequence (P01901 22-369): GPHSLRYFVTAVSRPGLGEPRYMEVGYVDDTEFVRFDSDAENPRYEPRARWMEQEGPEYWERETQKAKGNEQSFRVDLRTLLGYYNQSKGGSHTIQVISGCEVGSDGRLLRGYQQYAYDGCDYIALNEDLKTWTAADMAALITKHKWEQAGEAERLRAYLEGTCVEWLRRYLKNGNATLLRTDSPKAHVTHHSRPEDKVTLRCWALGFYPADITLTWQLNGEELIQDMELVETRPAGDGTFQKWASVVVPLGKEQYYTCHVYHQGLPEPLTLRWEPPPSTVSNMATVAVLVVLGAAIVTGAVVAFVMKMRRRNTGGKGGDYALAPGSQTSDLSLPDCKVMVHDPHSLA

For “K^b-GFP (H-2K^b heavy chain with GFP fused to the cytoplasmic tail, no HA tag) (natural protein)”, the ratio of GFP fluorescence intensity on pattern elements over total fluorescence intensity (background 1.1) amounted to 1.3.

Values taken from article PMC6125123.
